5 molecules from publication PMC3028594 (DNA repair, 2010) can be followed below.

A word on the stoichiometry N: it is the number of molecules, sites or subunits per partner or assembly.

First the molecules themselves.
B1: Bacillus subtilis β sliding clamp (β subunit of DNA polymerase III) (natural protein, UniProt P05649 1-378, looked up)
chain: MKFTIQKDRLVESVQDVLKAVSSRTTIPILTGIKIVASDDGVSFTGSDSDISIESFIPKEEGDKEIVTIEQPGSIVLQARFFSEIVKKLPMATVEIEVQNQYLTIIRSGKAEFNLNGLDADEYPHLPQIEEHHAIQIPTDLLKNLIRQTVFAVSTSETRPILTGVNWKVEQSELLCTATDSHRLALRKAKLDIPEDRSYNVVIPGKSLTELSKILDDNQELVDIVITETQVLFKAKNVLFFSRLLDGNYPDTTSLIPQDSKTEIIVNTKEFLQAIDRASLLAREGRNNVVKLSAKPAESIEISSNSPEIGKVVEAIVADQIEGEELNISFSPKYMLDALKVLEGAEIRVSFTGAMRPFLIRTPNDETIVQLILPVRTY

Assay in all cases: cross-linking
The data set “cross-linking” deals with the molecule itself.
Data set [1] addresses Escherichia coli β sliding clamp (β subunit of DNA polymerase III) (Escherichia coli, UniProt P0A988 1-366).
Data set [2] has as its target B1.

Escherichia coli β sliding clamp (β subunit of DNA polymerase III), sequence (P0A988 whole entry): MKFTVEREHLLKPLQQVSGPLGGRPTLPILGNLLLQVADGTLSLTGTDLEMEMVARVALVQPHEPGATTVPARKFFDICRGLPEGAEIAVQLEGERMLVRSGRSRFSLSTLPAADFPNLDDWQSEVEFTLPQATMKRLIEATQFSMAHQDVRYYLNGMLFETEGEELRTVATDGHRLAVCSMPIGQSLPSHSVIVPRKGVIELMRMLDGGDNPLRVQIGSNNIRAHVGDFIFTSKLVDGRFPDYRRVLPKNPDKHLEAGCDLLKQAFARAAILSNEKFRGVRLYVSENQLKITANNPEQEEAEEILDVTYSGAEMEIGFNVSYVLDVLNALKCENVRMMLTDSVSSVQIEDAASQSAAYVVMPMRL

As for B1, the “stoichiometry N” value in “cross-linking” turned out to be 2.

B2: regulatory subdomain of Escherichia coli MutL (domain or fragment, UniProt P23367 466-569, looked up)
chain: WLRQAQLTPGEAPVCAQPLLIPLRLKVSAEEKSALEKAQSALAELGIDFQSDAQHVTIRAVPLPLRQQNLQILIPELIGYLAKQSVFEPGNIAQWIARNLMSEH
On to B2, for which the binding result in data set [1] is reported as “binds”.

B3: C-terminal (endonuclease) domain of Bacillus subtilis MutL (domain or fragment, UniProt P49850 433-627, looked up)
chain: SDRVPIMYPIGQMHGTYILAQNENGLYIIDQHAAQERIKYEYFREKVGEVEPEVQEMIVPLTFHYSTNEALIIEQHKQELESVGVFLESFGSNSYIVRCHPAWFPKGEEAELIEEIIQQVLDSKNIDIKKLREEAAIMMSCKGSIKANRHLRNDEIKALLDDLRSTSDPFTCPHGRPIIIHHSTYEMEKMFKRVM
In the case of B3, the binding result in data set [1] was “binds”. Further, the “stoichiometry N” value in the data set “cross-linking” stood at 2.

B4: C-terminal domain of Escherichia coli MutL (domain or fragment, UniProt P23367 432-615, looked up)
chain: SQSFGRVLTIVHSDCALLERDGNISLLSLPVAERWLRQAQLTPGEAPVCAQPLLIPLRLKVSAEEKSALEKAQSALAELGIDFQSDAQHVTIRAVPLPLRQQNLQILIPELIGYLAKQSVFEPGNIAQWIARNLMSEHAQWSMAQAITLLADVERLCPQLVKTPPGGLLQSVDLHPAIKALKDE
Take B4: the binding result in data set [2] is given as “binds”. The “stoichiometry N” value in the data set “cross-linking” was ≥ 2.

B5: regulatory subdomain of Bacillus subtilis MutL (domain or fragment, UniProt P49850 471-574, looked up)
chain: KYEYFREKVGEVEPEVQEMIVPLTFHYSTNEALIIEQHKQELESVGVFLESFGSNSYIVRCHPAWFPKGEEAELIEEIIQQVLDSKNIDIKKLREEAAIMMSCK
On to B5, for which the binding result in data set [2] is “binds”.
